The numbers were not newly measured in publication PMC8349851, which cites them from elsewhere.

The target of the data set is PI3K p85 regulatory subunit SH3 (Homo sapiens) (UniProt P27986).
UniProt P27986, sequence (P27986 1-82): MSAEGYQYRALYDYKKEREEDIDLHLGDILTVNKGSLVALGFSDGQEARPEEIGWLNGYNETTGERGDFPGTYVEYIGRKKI

The term Kd denotes the free concentration of one partner at which half of the binding sites on the other are occupied at equilibrium, for simple one-to-one binding. As for obscurin PH (from UniProt Q5VST9), the Kd is 50 nM.
